Target: CXCR4 receptor on J-Lat8.4, Jurkat E6 and U1 cells (human) (UniProt P61073)
Assay: cell-based or functional assay

In the case of “cyclic peptide cyclo (D-Tyr-Orn-Arg-Nal-Gly-) (CycPep), conjugated to DSPE-PEG and displayed on CXCR4 targeted lipid nanoparticles (T-LNP)”, the viral DNA excision (excised band intensity on gel), J-Lat8.4 and Jurkat E6 against U1 is reported as 4 fold and the viral excision is reported as less than 60%.
